According to article PMC6628147:
Several values for one entry are separate records, joined by “and”; a condition that tells them apart may be missing. Identical values can stand only once.

Assays:
Test in all cases: EMSA
Details in all cases: EMSA: 1 nM 6-FAM DNA, 0-1.28 uM protein, 1 h at 37 C, binding buffer not stated; 6% PAGE in 40 mM Tris pH 7.6, 20 mM acetic acid, 1 mM EDTA at 4 C (effectors …)
[1] = system: BenM-DBDCatM-His (Acinetobacter baylyi ADP1)
[2] = system: BenM-DBDCatM(F293Y,H160R)-His (Acinetobacter baylyi ADP1)
[3] = system: CatM-His (Acinetobacter baylyi ADP1)
[4] = system: CatM(I18F,K38N)-His (Acinetobacter baylyi ADP1)

Row | Substance | Kd [1] | Kd [2] | Kd [3] | Kd [4]
1 | PcatB operator-promoter | 1 nM and 3 nM (2×) and 4 nM | 3 nM | 11 nM and 19 nM (2×) and 10 nM | –
2 | PbenA operator-promoter | – | 1 nM and 4 nM (2×) and 2 nM | 70 nM and 71 nM (2×) and 67 nM | 42 nM and 32 nM (2×) and 34 nM
